# Test results published in publication PMC11098746 (2024).
# Target: FGFR4 ectodomain (Homo sapiens, UniProt P22455)
# Assay: AVEXIS normalised luminescence
row,Binder,binding score
1,"26 (protein, bait human Fc-tagged dimer) KCIRLNNRAIYKNKYKNNVHIGTNENIRSIEKYSNVLCNSILCKNDKISSFINQRKNVDDDDESENDDMYESTTAGSSSETDNEADEEENDASDNNNADEEQIENSNNNNADEEQNDASSNDNNDEENEEQDDVMDNDQNDKKIKHSFNLANEAKHTKEERVKEEKKLKIYDFINDKEKRLNFNGDQKDEDNEENDDKDENTLENRNIISKHTSVFPGLYFIGIGYNLLFGNPLGEADSLIDPGYRAQIYLMEWALSKEGIANDLSTLQPVNGWIRKENACSRVESITECSSISDYTKSLSAEAKVSGSYWGIASFSASTGYSSFLHEVTKRSKKTFLVKSNCVKYTIGLPPYIPWDKTTAYKNAVNELPAVFTGLDKESECPSDVYEENKAKSNCENVALWMKFFDIYGTHIIYESQLGGKITKIINVATSSIEQMKKNGVSVKAKIQAQFGFGSAGGSTDVNSANSAANDEQSYDMNEQLIVIGGNPIKDVTKEENLFEWSKTVTNHPMPINIKLTPISDSFDSDDLKESYDKAIIYYSRLYGLSPHDTMQKDDKDIIKILTNADTVTKNSAPPINAQCPHGKVVMFGFSLKQNFWDNTNALKGYNIEVCEAGSNSCTSKQGSSNKYDTSYLYMECGDQPLPFSEQVISESTSTYNTVKCPNDYSILLGFGISSSSGRINSAEYVYSTPCIPGMKSCSLNMNNDNQKSYIYVLCVDTTIWSGVNNLALVALDGAHGKVNRAKKYSDGELVGTCPLDGTVLTGFKVEFHTSSPYVQTPFEKCAKSLKACSVHGSGHAIGIQNFKSLFIYMLCKNNK",0.914
2,"22 (protein, bait human Fc-tagged dimer) RGNQISKCVFYDKRNKDLKQVFYVPTNDVNMYKETIRKLLSREISLLEEPLNENSDSHNMANKKNVANFEEIKKNDENNNRKRKEMEEKLKYIEKYRNYAKGVLKNVEFKCENVDDLKSKVKCNLCVYTEIVNNKHIRQGQIIQIFMNECMYGFYYYDNINQYTQNNEYNNKALKDYNSAQKLDDIYFNIAKDISEGNVNGINFFKQQSSKYHPVCYVTE",0.879
3,"87 (protein, bait human Fc-tagged dimer) LKKGNGDFIKKNGVFFQIDRDMNEPPYSVINVFYTESLLDDNLLNQLEKERKMGKYKTQNYFRKSLDNNKYFMEYSRKQKEQLEFLLE",1.61
4,"83 (protein, bait human Fc-tagged dimer) NKNLKCNFYYNNNNLATYVIKHNRFLSEYQSNFLGGGYSAALKLVNSKKSGTNVNTKYNSENTNTNNNIPESSSTYTNTRLAANNAATTSTTKVTDNNKANIKLTGNNAATINTNSAENTAATKKVTENVITNQILTGNNNAATNTATTEHNNNINTNTNSAENTAATKKVTENVITNQILTGNNNAATNTATTEHNNNINTNTNSADNSNTNTNLADNTATTKKLTDNINTAQNLATSTNTATVSTDNNNINTKPIDNNNADIKSTDNYNTGTKETDNKNTDIKATDNNNIATTTDNTNTNVISTDNSKTNVISTDNSKTNTISTDNDNADTILTDNDNNADIILTDNNNADTISTDNDNADTKATDNNNNANTKATDNNNAKIISPDNNNAKTTSTDNNNNANTKATDNNNAKTISNDNNNAKTISTDNNNAKTISNDNNNANTISTDNNNNNANQYVFANNYNEATSDDELNKDSCDYSEEKENIKSMINAYLDKLDLETVRKIHSDISTCIEKKNNPRNQITHLNNLKNMYNIIKFIVVIYIAFNWAEVIYKYVGKLILAFALYMLIN",1.24
5,"85 (protein, bait human Fc-tagged dimer) VKERNNGFPKRGEGRYLFGRNQMKSQDIEKNNKELSNKMDTQDSKQYITYLYHSSICQYCSKVTSMLENNDNVEIIKFKENNKIEDFGKFTKPIVVLLKNINKENSLERSIFYEELKRKGKKVQVPALEVNNIILFESDEIIKFYKKLLQKVSNDDKSSLQNRGNIKNDQKKNNADYDNDYDNDDNNDDNDDDDDNNYNNNNDDGYDYHTS",1.22
6,"2 (protein, bait human Fc-tagged dimer) DFFLRYRTGFIRSRLETYIGNSDVRYNKAFINNRLLNEHAHCDAWSEWSACSKTCDYGIKIRVKISTDQTKSKACSNIAESTICHEHICPRTFEEAEETYLHNKEKEKKKKFRTT",1.02
7,"7 (protein, bait human Fc-tagged dimer) GIISGRINIAAEFHINIFVKDYFKKKKLTFVNFVSLCPKGFNIENNKCIPCPIGLYYSNSKSINQCIPCENYRKHSTTLYNSAKSKTECLCKPGYFLKDKRCVKCVAGFYKDQIGNFKCQGTCENTKMSIEVGAKNYEELKCTCKDGYFTEKKKKECIPCPFGNYCIYNPKVKYKADIIRCKNNKLTLHRGSKSPNDCLCSQGYYHDYKMDECELCNYDQYKSHISNDPCVPFISKSLVNQEYLINEPYFQYTNIYIKQTSNIIFAPKKGSKMFHEATLCETGYSYSMNKAICSICRYNNYCLGLDHSSIICPKNSITIKLKSVSALDCLCIKGYGRIIINTNQAFTISCIPCPYNTFQPHHSYGKCIPCPPHTFTKITGATSITECIPKMGYYNIAFEYIYEYSKQQMLNSIPHFIQYYHYFLKNQYEHFA",0.976
8,"74 (protein, bait human Fc-tagged dimer) YNLNNDLSKNNNFALNTYVRKDDVEDDSKNEIVDNIQKMVDDFSDDIGFVKTSMREVLLDTEASLEEVSDHVVQNIAKYSLTIEEKLNLFDGLLEEFIENNKGLISNLAKRQQKLKGDKIKKVCDLILKKLKKLENVNKLIKYKIILKYGNKDNKKEMIQTLKNEEGLSDDFKNNLANYETEQNNDDIKEIELVNFISTNYDKFVVNLEDLNKELLKDLNMALS",1.05
9,"45 (protein, bait human Fc-tagged dimer) GEEKLTKFDPVMIKEGELFGEVSYDCEYSGFLEIENDDILYYCFFVGEDDHNGLLLRKFHMDDMVWGIPMEVLITRKKINLYILTVDYILSKLILIYSFDEKIRITVFNNYMEESVMSEKISINYEILYKANMISYITYFYKNKKSLCVCGMNRNENILCTFSFDYGLTMKDDHTIEFFLKKKIPLGHYKMQVTFKETEVYFNLYNDLNEANFYELKCVKKQDEYICDIMNKIRETQEYNYKRYTYPSSEHNKYYNDHHNKQPQGKQGQQGGAPLPNLGEEENNFIYKHIVRNKYFQMIVFQKDQKCYLAWSFNSLNINDEITKEISSVPCSNVASYYRQERLIVTLKKNQLGSRNHFFLIYEKLTEKGVGCEFGVGGSLYVTKTFMNNACDMDINNMNVATTNYDEINFALIIPLSFQLNYATCFIWEENVDNNEERSSLYYLEEYTNEKEDIKVYTFYFYKYILIYKNFKKSTCTFESKNNEKLYISFRGDTYYKEYNCNILLDSCDFFLHTQSKINIAYDDDVWQVSEELYDGFVMYNGAYVSLYDVLSRSNAHGLIYIDGKENNAAINLNNIKNNNNNNNNNNNNNNAANNNNIANNANSNNAFGEHEKVITIIIPYGIPSTRTIKIEFLNKQNNEEKRWAYLRLQKNEYIMKKVIGINSADIFDLSYKYYKYNQEKIKFILNDFSETTYLGFICQTKEEIKKSLCTISLVDHSHKNMAINNLFKTNNHILPFLYDQSPPRKIQPYNQIISEFRFVLFKNFHLFLQENKINYILLKCMCSSSSSYINTQKNIELSYLITNEQVSHDFIHTPGILIRPRTNIAHNDYQKNNKGNHKGNNKANNKANDKDSNNNANNNANKNGNNHNDNNNNNQNKDIDINSNYAIHNNNEKVKRTKKKINDAPYDKQDEELPSYDFNDLLHEKKNGASVFDFNFVLFLFICITFF",1.05
10,"30 (protein, bait human Fc-tagged dimer) QDNKNKVEETHEEQGEMTQEEKDEIYSEFVDYDLNKDGLIDAEEIVVTLKNMKKADFINFFNKVDLDSSGTISIDEYMLFINSN",1.55
